# From paper PMC11374129
# Molecular target: T1, EnvZ (Escherichia coli K12) (UniProt P0AEJ4)
# T1 sequence: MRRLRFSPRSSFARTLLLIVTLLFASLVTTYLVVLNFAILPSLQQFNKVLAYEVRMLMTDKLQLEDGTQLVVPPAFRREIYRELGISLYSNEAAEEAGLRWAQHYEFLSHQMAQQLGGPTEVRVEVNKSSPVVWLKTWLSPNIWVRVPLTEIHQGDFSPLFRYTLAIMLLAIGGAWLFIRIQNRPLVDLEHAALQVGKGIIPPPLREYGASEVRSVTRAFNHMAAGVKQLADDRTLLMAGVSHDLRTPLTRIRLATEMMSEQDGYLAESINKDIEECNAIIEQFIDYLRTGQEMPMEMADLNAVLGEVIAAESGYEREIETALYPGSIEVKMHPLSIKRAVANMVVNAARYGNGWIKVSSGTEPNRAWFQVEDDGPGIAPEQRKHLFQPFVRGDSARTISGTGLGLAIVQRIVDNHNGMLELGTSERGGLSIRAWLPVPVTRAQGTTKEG
# Test: EMSA
sequence,measurement,value
CACGGCGTGTTCTTCCGACAACGTTCTTAAAAAAACTTCTCTCTCCCAGGTCACACCAGTCACAGAGATTGGCTGTGAGTGTCGCTGTGCACAAACCGCGCACAGACTCATACAGTCCCGGCGGTTCCGTTCACAACCCACGCCTCATCCCCACCGACCCAACACACACCCCACAGTCATCGCCACCGTCATCCACAACTCCGAC (double strand) [oriC],binding,no binding
